Fold interaction (PLEA signal) against p53 data for one substance are collected here from paper PMC9508830.

This test deals with GAr fused to the N-terminus of p53 (GAr-p53), nascent peptide on polysomes (Epstein-Barr virus | not stated). Kind of test: proximity ligation; PLEA (PLA ELISA): polysomes of cycloheximide-treated H1299 lysates captured on 96-well plates with goat anti-RPL5, increasing amounts of polysomes; in vitro PLA with anti-p53 (rabbit) and anti-NACA (mouse).

“nascent polypeptide-associated complex subunit alpha (NACA), endogenous in H1299 cells (from UniProt Q13765 1-215) (natural protein)” gave a fold interaction (PLEA signal) against p53 of 3 fold.
